One molecule from patent US7384773 (Pfizer, dated 2008) can be followed below.

This experiment has as its target T1, CHO cell expressed recombinant human beta secretase proteolytically cleaved with HIV protease (human, UniProt P56817 61-453, glycosylated (CHO cell expressed)).
T1 construct: N-terminus at V40 after cleavage of the F39-V40 bond; The transmembrane and cytoplasmic domains are deleted; also called HIV protease treated beta secretase; processed enzyme
Briefly: affinity chromatography, peptide immobilised on resin.

Non-standard residues stand in square brackets, D forms with d. No end group written: not given here. Sta = CC(C)C[C@H](N)[C@@H](O)CC(=O)O

T1 sequence (P56817 other isoform, or with tags, fused parts or gaps): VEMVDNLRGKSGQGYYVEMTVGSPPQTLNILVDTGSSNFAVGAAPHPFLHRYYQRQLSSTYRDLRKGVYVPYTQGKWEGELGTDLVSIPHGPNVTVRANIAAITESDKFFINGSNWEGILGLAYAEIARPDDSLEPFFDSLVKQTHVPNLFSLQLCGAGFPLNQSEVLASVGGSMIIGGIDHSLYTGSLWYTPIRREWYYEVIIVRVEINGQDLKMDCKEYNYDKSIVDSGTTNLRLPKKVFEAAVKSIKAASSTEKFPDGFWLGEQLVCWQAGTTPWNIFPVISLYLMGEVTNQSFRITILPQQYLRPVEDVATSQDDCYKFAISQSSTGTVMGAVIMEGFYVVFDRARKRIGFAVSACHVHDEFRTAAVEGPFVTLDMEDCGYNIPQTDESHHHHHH

B1: synthetic peptide Ser-Glu-Val-Asn-Sta-Val-Ala-Glu-Phe-Arg-Gly-Gly-Cys (Sta=statine) (peptide)
peptide: SEVN[Sta]VAEFRGGC
modifications: also: coupled to Sulfolink resin (via Cys)
With B1, the binding result is given as “binds”.
